# From patent publication US20080267989A1
# Assays:
# [1] = target: 2F5 (broadly neutralizing human monoclonal antibody to the gp41 MPR); experiment: cell-based or functional assay
# [2] = target: 2F5 (broadly neutralizing human monoclonal antibody to the gp41 MPR); experiment: competition ELISA, peptide serially diluted with 1 ug/ml 2F5 on NE3-captured HBsAg-MPR particles
molecule,measurement,setting,value
HBsAg-MPR particles (HBsAg with the HIV-1 gp41 membrane proximal region at the C-terminus),"neutralization activity of 2F5 adsorbed out, SF162.LS virus (TZM-B1 cells, luciferase)",[1],21%
same,"neutralization activity of 2F5 adsorbed out, YU2.5G3 virus (TZM-B1 cells, luciferase)",[1],10%
NEQELLELDKWASLWN [16-mer peptide harboring the 2F5 epitope (…)],fold enhancement of 2F5 binding to HBsAg-MPR particle,[2],2 fold
